Experimental data: article PMC3182822

Target: trypsin from bovine pancreas (bovine)
Test: enzyme inhibition kinetics

trypsin from bovine pancreas (bovine), sequence (P00760 24-246): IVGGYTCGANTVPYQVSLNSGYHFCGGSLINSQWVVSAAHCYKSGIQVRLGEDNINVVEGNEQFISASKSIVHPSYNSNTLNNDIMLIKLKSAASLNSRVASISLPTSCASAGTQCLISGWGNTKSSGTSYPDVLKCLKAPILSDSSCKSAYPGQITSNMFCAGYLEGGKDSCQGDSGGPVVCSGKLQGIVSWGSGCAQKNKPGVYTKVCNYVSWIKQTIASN

- Ki: 57 µM
Substance: ovomucoid trypsin inhibitor (from UniProt P01005 25-210) (natural protein)
